# Values quoted from earlier work in article PMC8138767, “Intrinsically disordered substrates dictate SPOP subnuclear localization and ubiquitination activity” (The Journal of Biological Chemistry, 2021).
# Columns and labels:
# SPOP28–359 = target: T1, SPOP28–359 (Homo sapiens, UniProt O43791); details: substrates with six (DAXX) and seven (AR) SB motifs; cited from earlier work
# T1 construct: A plasmid encoding His–SUMO–SPOP human residues 28 to 359; His-SUMO (N, cleaved yes); made in house; host or cells: E. coli Rosetta BL-21(DE3)
# T1 sequence (O43791 28-359): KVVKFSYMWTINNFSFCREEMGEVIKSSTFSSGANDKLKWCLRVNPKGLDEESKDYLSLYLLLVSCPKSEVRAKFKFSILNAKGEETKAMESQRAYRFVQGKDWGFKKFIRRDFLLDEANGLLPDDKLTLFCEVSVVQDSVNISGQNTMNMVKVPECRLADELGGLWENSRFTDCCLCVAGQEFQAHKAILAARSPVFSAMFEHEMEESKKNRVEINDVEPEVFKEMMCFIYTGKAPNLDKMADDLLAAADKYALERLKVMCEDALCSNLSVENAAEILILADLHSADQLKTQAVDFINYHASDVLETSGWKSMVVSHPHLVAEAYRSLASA
# Source text: We next sought to assess the role of SPOP oligomerization in the SPOP–Pdx1 interaction and saw a near 10-fold enhancement in binding affinity of Pdx1 to oligomeric SPOP28–359 compared with SPOP–MATH (Fig. 5B and Table S4) in agreement with previous similar observations ([22], [23]). Concentration-dependent SPOP self-association results in an ensemble of oligomeric species with sizes spanning from dimers to large multimers ([21]). SPOP substrates DAXX and AR are also multivalent for SPOP; they contain six and seven SB motifs, respectively, which dramatically enhances their affinities for SPOP28 ...
# SPOP = details: in phase-separated droplets in cells; cited from earlier work
# Source text: SPOP derives its name from the […]. Specifically, SPOP colocalizes with nuclear speckles but has also been reported in other subnuclear compartments ([24], [26]). The nuclear speckles that house SPOP in the absence of high concentrations of substrate are liquid-like in nature ([21]). The SPOP substrate DAXX typically localizes to promyelocytic leukemia bodies ([27]).
substance,measurement,setting,value
"AR: androgen receptor, SPOP substrate with seven SB motifs",affinity for SPOP28–359 relative to SPOP–MATH,SPOP28–359,dramatically enhances their affinities for SPOP28–359 relative to SPOP–MATH
same,SPOP-mediated polyubiquitination in cells,SPOP,robust SPOP-mediated polyubiquitination
